The values below come from paper doi:10.1101/2021.09.27.462041.

As a reminder, the Kd is the free concentration of one partner at which half of the binding sites on the other are occupied at equilibrium, for simple one-to-one binding. Low values mean tighter binding, high ones weaker binding. Broadly, the koff is a measure of how fast the partners let go of each other. A high value points to a short-lived complex.

Common to all, as to test: SPR
(Surface plasmon resonance follows binding to a sensor surface in real time, without labels.)

Experiment [1] deals with H3K9me3 11-mer histone H3 tail peptide.
For experiment [2], the target named is H3K4me3 11-mer histone H3 tail peptide.
Experiment [3] has as its target H3K27me3 11-mer histone H3 tail peptide.
The target of experiment [4] is H3K36me3 11-mer histone H3 tail peptide.

B1: DIDO3 PHD domain (domain or fragment)
chain: PNALYCICRQPHNNRFMICCDRCEEWFHGDCVGISEARGRLLERNGEDYICPNCTILQVQ
Take B1: the Kd in experiment [1] worked out at 22.2 nM; in experiment [2] it was 25.5 nM; in experiment [3] it was 26.5 nM; in experiment [4], 32.1 nM. In addition, the koff in experiment [2] stood at 0.00238 s⁻¹; in experiment [4] it was 0.0024 s⁻¹.
